# pKd: −log10 of the molar value.
# Assays:
# [1] = biological target: CSFV sE2 (soluble E2 protein, 693-1020aa) with (His)6 tag (classical swine fever virus); test: SPR; Biacore […] (20 μg/ml) […]; 20 mM Hepes, 150 mM NaCl, 0.005% Tween 20, pH 7.4, […]; 1:1 binding model
# [2] = biological target: CSFV sE2 (soluble E2 protein, 693-1020aa) with (His)6 tag (classical swine fever virus); test: SPR; Biacore T100; […] (20 μg/ml) […]; 20 mM Hepes, 150 mM NaCl, 0.005% Tween 20, pH 7.4, […]; 1:1 binding model
substance,measurement,setting,value
soluble metalloproteinase domain of pig ADAM17 (sMP) with (His)6 tag (from UniProt O77636 18-477) (domain or fragment),pKd,[1],5.49
same,pKd,[2],7.00
